Paper PMC7335163

Molecular target: GFP-tagged R2910Q UNC80 mutant (mouse) (mouse) (UniProt Q8BLN6)
Assay: co-IP; HEK293T co-transfected with NALCN or UNC79 and GFP-tagged UNC80 constructs; IP with anti-GFP, blot anti-NALCN or anti-UNC79; RIPA buffer (IP buffer with 0.5% deoxycholate and 0.1% SDS); 4 °C (Fig. 8a-c, f, g)

UniProt Q8BLN6, sequence (Q8BLN6 whole entry R2910Q): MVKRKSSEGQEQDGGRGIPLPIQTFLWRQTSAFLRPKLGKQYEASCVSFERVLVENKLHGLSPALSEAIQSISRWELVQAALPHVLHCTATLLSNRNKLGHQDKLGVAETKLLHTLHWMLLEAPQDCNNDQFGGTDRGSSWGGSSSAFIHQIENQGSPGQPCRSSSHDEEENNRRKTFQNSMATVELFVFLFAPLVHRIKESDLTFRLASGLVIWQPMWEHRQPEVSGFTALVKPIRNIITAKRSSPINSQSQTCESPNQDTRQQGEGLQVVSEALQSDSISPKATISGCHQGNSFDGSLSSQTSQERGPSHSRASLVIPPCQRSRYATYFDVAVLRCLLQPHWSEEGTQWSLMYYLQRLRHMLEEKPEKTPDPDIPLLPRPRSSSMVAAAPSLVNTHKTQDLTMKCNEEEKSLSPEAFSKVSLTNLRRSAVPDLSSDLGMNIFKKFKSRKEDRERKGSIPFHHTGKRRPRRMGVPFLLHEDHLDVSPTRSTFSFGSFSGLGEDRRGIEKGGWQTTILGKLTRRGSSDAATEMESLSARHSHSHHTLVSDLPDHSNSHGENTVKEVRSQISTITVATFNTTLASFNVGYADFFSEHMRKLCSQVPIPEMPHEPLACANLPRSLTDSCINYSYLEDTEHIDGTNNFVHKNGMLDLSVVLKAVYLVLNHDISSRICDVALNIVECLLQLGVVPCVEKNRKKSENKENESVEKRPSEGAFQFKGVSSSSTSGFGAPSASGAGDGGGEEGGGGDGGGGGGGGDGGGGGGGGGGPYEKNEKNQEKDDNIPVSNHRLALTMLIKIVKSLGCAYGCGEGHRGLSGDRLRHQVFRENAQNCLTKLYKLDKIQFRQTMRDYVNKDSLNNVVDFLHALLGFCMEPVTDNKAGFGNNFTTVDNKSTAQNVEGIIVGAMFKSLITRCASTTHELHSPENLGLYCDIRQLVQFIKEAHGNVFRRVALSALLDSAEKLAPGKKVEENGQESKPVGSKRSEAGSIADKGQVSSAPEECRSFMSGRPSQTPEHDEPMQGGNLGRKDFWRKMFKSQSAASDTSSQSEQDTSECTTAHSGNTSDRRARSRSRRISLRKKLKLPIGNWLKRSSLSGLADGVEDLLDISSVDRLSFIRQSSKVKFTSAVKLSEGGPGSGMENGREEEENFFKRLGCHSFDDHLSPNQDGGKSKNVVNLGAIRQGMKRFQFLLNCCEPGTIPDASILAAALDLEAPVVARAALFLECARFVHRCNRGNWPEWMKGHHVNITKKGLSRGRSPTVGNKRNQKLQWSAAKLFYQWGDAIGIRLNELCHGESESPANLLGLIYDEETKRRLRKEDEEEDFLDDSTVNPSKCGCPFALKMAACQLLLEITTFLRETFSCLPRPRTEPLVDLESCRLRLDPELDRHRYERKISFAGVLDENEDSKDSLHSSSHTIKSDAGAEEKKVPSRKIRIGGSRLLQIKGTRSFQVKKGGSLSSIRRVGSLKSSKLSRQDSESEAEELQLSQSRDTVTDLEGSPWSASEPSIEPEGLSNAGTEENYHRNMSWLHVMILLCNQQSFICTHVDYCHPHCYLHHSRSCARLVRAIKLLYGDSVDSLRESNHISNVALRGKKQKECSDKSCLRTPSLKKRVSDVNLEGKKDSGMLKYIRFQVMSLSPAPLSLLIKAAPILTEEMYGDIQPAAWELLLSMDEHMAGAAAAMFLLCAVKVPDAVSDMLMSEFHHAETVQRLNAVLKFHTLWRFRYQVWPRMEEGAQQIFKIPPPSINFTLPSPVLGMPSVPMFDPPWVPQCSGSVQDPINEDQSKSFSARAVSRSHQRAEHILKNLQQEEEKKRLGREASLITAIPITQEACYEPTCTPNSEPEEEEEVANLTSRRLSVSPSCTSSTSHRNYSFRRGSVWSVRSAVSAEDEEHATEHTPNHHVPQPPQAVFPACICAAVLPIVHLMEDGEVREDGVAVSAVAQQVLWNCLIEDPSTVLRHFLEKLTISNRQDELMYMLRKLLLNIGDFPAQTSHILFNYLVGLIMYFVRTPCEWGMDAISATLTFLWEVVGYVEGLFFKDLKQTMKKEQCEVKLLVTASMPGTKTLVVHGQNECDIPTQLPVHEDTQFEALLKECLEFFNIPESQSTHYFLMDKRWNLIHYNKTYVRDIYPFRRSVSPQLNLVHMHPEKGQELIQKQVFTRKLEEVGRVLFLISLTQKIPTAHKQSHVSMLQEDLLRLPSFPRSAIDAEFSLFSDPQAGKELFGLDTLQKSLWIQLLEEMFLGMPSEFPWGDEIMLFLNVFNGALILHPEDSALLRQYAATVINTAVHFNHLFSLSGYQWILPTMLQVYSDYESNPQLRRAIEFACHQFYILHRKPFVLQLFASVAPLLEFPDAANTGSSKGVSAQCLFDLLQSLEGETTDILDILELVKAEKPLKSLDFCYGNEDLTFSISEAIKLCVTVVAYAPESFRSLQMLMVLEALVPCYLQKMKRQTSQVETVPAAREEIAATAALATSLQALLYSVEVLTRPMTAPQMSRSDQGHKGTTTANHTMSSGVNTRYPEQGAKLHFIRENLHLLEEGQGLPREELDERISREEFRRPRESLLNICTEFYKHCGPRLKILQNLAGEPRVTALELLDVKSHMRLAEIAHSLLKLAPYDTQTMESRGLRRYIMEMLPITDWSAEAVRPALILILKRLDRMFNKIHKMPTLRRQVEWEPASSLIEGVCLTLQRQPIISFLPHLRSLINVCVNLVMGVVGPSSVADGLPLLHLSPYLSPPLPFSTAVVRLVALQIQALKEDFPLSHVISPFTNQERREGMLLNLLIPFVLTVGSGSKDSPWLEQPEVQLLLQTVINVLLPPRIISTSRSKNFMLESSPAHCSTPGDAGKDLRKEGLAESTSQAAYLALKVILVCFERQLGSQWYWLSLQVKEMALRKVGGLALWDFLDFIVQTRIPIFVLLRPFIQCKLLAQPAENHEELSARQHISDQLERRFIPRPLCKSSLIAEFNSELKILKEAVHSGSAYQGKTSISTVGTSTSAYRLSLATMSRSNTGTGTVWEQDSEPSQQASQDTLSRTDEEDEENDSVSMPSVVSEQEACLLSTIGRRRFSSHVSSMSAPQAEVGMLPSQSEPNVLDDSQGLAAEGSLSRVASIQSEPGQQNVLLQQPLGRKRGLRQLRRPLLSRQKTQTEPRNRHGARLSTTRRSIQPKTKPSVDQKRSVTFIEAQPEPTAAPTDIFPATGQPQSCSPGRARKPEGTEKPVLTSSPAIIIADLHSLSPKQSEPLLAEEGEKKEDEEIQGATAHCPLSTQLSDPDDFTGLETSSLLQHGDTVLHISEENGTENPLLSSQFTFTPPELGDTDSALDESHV

reduction of apparent UNC80–UNC79 affinity (co-precipitated UNC79) against WT UNC80: 60%
Substance: UNC79 (mouse), wild type, non-tagged, Q0KK59 1-2596
